Experimental data published in paper PMC3138255 (The Journal of Biological Chemistry, 2011).

T1: Rnd1 GTPase (residues 5-200), loaded with GMPPNP (UniProt Q92730 5-200)
T1 sequence (looked up): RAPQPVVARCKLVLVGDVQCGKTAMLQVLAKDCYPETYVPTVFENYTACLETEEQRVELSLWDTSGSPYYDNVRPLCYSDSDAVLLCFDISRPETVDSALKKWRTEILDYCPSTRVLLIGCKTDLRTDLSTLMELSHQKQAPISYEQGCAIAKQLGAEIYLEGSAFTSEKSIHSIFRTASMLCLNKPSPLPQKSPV

T2: Rnd2 GTPase (residues 1-227), loaded with GMPPNP (UniProt P52198 1-227)
T2 sequence (looked up): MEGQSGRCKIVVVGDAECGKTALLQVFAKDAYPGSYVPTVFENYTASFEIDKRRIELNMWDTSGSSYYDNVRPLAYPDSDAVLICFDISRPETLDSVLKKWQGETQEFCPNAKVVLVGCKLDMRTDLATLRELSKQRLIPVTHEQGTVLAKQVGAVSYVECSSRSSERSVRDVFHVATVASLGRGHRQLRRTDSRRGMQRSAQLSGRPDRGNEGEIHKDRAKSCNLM

T3: Rnd1 GTPase Y114F (UniProt Q92730 5-200, Y114F)
T3 sequence (looked up): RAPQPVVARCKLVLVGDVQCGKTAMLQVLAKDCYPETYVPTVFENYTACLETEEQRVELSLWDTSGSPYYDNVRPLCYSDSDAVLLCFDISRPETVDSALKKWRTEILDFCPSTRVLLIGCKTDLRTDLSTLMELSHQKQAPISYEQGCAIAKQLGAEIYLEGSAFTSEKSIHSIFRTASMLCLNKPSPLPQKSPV


Legend:
[1] = target: Rnd1 GTPase as used in the quoted work (ref 39, Hota & Buck 2009) (UniProt Q92730); assay: Not stated in this article; conditions: cited from earlier work
[2] = target: Rnd2 GTPase (residues 1-227), loaded with GMPPNP (UniProt P52198); assay: ITC + SPR
[3] = target: Rnd1 GTPase (residues 5-200), loaded with GMPPNP (UniProt Q92730); assay: ITC + SPR
[4] = target: Rnd1 GTPase, wild type, construct of this paper (UniProt Q92730); assay: Isothermal titration calorimetry; conditions: pH 7.0, 25 °C, 50 mM NaCl, 4 mM MgCl2, 50 mM phosphate buffer
[5] = target: T1, Rnd1 GTPase (residues 5-200), loaded …; assay: ITC
[6] = target: T2, Rnd2 GTPase (residues 1-227), loaded …; assay: ITC
[7] = target: T3, Rnd1 GTPase Y114F; assay: ITC
[8] = target: the molecule itself; assay: SEC

Chain of Rnd1 GTPase, wild type, construct of this paper (Q92730 whole entry, the tested form may be a part): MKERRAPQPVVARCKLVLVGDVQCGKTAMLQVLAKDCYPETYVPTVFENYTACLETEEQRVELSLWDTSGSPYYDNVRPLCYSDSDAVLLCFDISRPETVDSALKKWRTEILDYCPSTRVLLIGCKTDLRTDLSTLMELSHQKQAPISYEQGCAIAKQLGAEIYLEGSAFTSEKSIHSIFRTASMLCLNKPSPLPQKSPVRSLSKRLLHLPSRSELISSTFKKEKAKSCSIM
Chain of Rnd1 GTPase as used in the quoted work (ref 39, Hota & Buck 2009) (Q92730 whole entry, the tested form may be a part): as above

Molecule	Ka [5] [M⁻¹]	Kd [5] [µM]	dH [5] [kcal/mol]	Ka [6] [M⁻¹]	Kd [6] [µM]	dH [6] [kcal/mol]	further results
Plexin-B1 RBD as used in the quoted work (ref 39, Hota & Buck 2009)	–	–	–	–	–	–	Kd ([1]; pH 6.4): ∼3.1 μM; Kd ([1]; pH 6.8): ∼5.5 μM
plexin-C1 Rho GTPase binding domain (RBD), residues 1198-1305 (from UniProt O60486 1198-1305) (domain or fragment)	–	–	–	–	–	–	Kd [2]: > 50 µM; Kd [3]: > 50 µM
Plexin-B1 Rho GTPase binding domain (RBD), wild type, construct of this paper	–	–	–	–	–	–	Ka [4]: 1.8 10^5 M^-1; Kd [4]: 5.5 µM; ΔG [4]: -7.1 kcal/mol
plexin-B1 Rho GTPase binding domain (RBD), residues 1746-1852 (domain or fragment, human, UniProt O43157 1746-1852, looked up) YRPLTLNALLAVGPGAGEAQGVPVKVLDCDTISQAKEKMLDQLYKGVPLTQRPDPRTLDVEWRSGVAGHLILSDEDVTSEVQGLWRRLNTLQHYKVPDGATVALVPC	180000	5.5	-6.7	40000	> 20	-0.2	Ka [7]: 180000 M⁻¹; Kd [7]: 5.5 µM; dH [7]: -2.5 kcal/mol
plexin-D1 RBD Y1618L (domain or fragment) AKPRNLNVSFQGCGMDSLSVRAMDTDTLTQVKEKILEAFCKNVPYSQWPRAEDVDLEWFASSTQSLILRDLDDTSVVEDGRKKLNTLAHYKIPEGASLAMSLIDKKDNTLGRVKDLDTEKYFHLVL	190000	5.2	-3.1	70000	14.2	-1.6	–
plexin-D1 RBD S1614V/T1615A (domain or fragment) AKPRNLNVSFQGCGMDSLSVRAMDTDTLTQVKEKILEAFCKNVPYSQWPRAEDVDLEWFASVAQSYILRDLDDTSVVEDGRKKLNTLAHYKIPEGASLAMSLIDKKDNTLGRVKDLDTEKYFHLVL	50000	20	1.3	130000	7.7	-1.4	–
plexin-C1 RBD K1267L (domain or fragment) TVALNVVFEKIPENESADVCRNISVNVLDCDTIGQAKEKIFQAFLSKNGSPYGLQLNEIGLELQMGTRQLELLDIDSSSVILEDGITKLNTIGHYEISNGSTIKVFKK	100000	10	-1.9	90000	11.1	-0.6	–

Now from value to molecule, other results behind:

Ka [5] [M⁻¹]	Kd [5] [µM]	dH [5] [kcal/mol]	Ka [6] [M⁻¹]	Kd [6] [µM]	dH [6] [kcal/mol]	Molecule	further results
70000	14.1	-1.4	90000	9.8	-1.6	plexin-B1 RBD L1815Y (domain or fragment) YRPLTLNALLAVGPGAGEAQGVPVKVLDCDTISQAKEKMLDQLYKGVPLTQRPDPRTLDVEWRSGVAGHYILSDEDVTSEVQGLWRRLNTLQHYKVPDGATVALVPC	–
–	–	–	80000	20	-3.2	plexin-B1 RBD L1815K (domain or fragment) YRPLTLNALLAVGPGAGEAQGVPVKVLDCDTISQAKEKMLDQLYKGVPLTQRPDPRTLDVEWRSGVAGHKILSDEDVTSEVQGLWRRLNTLQHYKVPDGATVALVPC	–
–	–	–	60000	16.6	-0.4	plexin-D1 Rho GTPase binding domain (RBD), residues 1553-1678 (domain or fragment, human, UniProt Q9Y4D7 1553-1678, looked up) AKPRNLNVSFQGCGMDSLSVRAMDTDTLTQVKEKILEAFCKNVPYSQWPRAEDVDLEWFASSTQSYILRDLDDTSVVEDGRKKLNTLAHYKIPEGASLAMSLIDKKDNTLGRVKDLDTEKYFHLVL	–
140000	7	-8	90000	10.7	-1.2	plexin-A2 Rho GTPase binding domain (RBD), residues 1490-1600 (domain or fragment, human, UniProt O75051 1490-1600, looked up) LIRQQIEYKTLILNCVNPDNENSPEIPVKVLNCDTITQVKEKILDAVYKNVPYSQRPRAVDMDLEWRQGRIARVVLQDEDITTKIEGDWKRLNTLMHYQVSDRSVVALVPK	Ka [7]: 100000 M⁻¹; Kd [7]: 10 µM; dH [7]: -4.1 kcal/mol; stoichiometry N [8]: 2
360000	2.6	-3.4	120000	8.3	-1.5	plexin-C1 RBD T1264V/R1265V (domain or fragment) TVALNVVFEKIPENESADVCRNISVNVLDCDTIGQAKEKIFQAFLSKNGSPYGLQLNEIGLELQMGVVQKELLDIDSSSVILEDGITKLNTIGHYEISNGSTIKVFKK	–
